From US20030125257A1 (published 2003)
Square brackets hold non-standard residues; d marks the D form. Ends that are not written are not given here. Sta = CC(C)C[C@H](N)[C@@H](O)CC(=O)O

Target: purified full-length human BACE with six C-terminal His residues, expressed in Sf9 insect cells (human, UniProt P56817 46-501)
Test: radioligand equilibrium binding (Scatchard plot); no inhibitor

purified full-length human BACE with six C-terminal His residues, expressed in Sf9 insect cells, sequence (P56817 other isoform, or with tags, fused parts or gaps): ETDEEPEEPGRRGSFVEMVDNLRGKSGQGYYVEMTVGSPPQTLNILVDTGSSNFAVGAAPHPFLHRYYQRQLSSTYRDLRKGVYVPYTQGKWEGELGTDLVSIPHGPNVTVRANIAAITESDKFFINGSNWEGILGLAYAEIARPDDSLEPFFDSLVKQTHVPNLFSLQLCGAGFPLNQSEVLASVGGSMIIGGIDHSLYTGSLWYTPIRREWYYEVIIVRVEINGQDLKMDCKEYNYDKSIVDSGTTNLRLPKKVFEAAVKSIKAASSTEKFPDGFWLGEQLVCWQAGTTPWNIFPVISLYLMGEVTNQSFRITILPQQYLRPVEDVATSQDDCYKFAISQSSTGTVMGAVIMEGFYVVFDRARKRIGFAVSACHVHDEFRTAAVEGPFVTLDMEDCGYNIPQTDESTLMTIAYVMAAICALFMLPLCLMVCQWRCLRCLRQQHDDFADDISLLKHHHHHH

Kd: 0.025 µM
Binder: EVN[Sta]VAE[Tyr(3H2)]-NH2 [tritiated Compound A (Glu-Val-Asn-Statine-Val-Ala-Glu-Tyr-NH2, iodine of Tyr(I2) exchanged for 3H)]
